Consider one substance from patent US12559863B2, “Macrocyclic modulators of disease associated protein misfolding and aggregation” (RESQ BIOTECH, priority 2017, dated 2026).

For assay [1], the target named is T1, SOD1(A4V) (Homo sapiens, UniProt P00441, A5V).
T1 construct: polyHis; made in house; host or cells: E. coli Origami 2(DE3)
The assay is described as follows: Circular dichroism of isolated SOD1(A4V) with cyclic peptide. The class given is biochemical. Particulars: 40 μM SOD1(A4V), 25° C., 90 d. On the procedure: (§1) SOD1 or mutants thereof were overexpressed from the appropriate pET-SOD1 or PASK-SOD1 vectors in E. coli Origami 2(DE3) cells in LB medium containing 50 μg/mL kanamycin (for pET-SOD1) or 100 μg/mL ampicillin (for pASK-SOD1), 200 μM CuCl2, and 200 μM ZnCl2 by the addition of 0.01 mM IPTG (for pET-SOD1) or 0.2 μg/mL anhydrotetracycline (aTc) (for pASK-SOD1), either at 37° C. for 2-3 h or at 18° C. for about 16 h. Origami 2(DE3) cells were utilized in order to provide an oxidizing cytoplasmic environment in order to promote correct formation of disulfide bonds, which are required for proper SOD1 folding and function. Under these conditions, bacterially produced SOD1 is produced in dimeric and enzymatically active form, while it simultaneously co-exists with misfolded, soluble and insoluble SOD1 oligomeric/aggregated species (FIG. 3C). […]
Appropriate amounts of synthetic cyclic peptides were added to either 40 μM SOD1(A4V) or 50 μM Aβ solutions at the desired cyclic peptide:target protein molar ratio. SOD1(A4V) structural changes were monitored for 90 d at 25° C., under quiescent conditions. Aβ structural changes were monitored for 30 d at 33° C. under quiescent conditions. CD spectra in the range 190-260 nm were recorded on a JASCO J-715 spectropolarimeter (Jasco Co., Japan) using quartz cuvettes with 1 mm path length. […]
(In general: Circular dichroism is the unequal absorption of left and right circularly polarised light.)

The target in assay [2] is T1, SOD1(A4V). The assay is described as follows: Dynamic light scattering of SOD1(A4V) with cyclic peptide. The class given is biochemical. As to conditions: room temperature, 60 d. On the procedure: as §1, with “3C). Thus, the acquired protein is found in a state that resembles the conditions encountered in human cells under stressful or pathogenic conditions. The appearance of misfolded SOD1 oligomers/aggregates is enhanced with increasing incubation temperatures.” for “3C).”
The sizes of the SOD1 particles were measured using a Zetasizer NanoZS90 (Malvern) instrument. […]

T1 sequence (P00441 whole entry A5V): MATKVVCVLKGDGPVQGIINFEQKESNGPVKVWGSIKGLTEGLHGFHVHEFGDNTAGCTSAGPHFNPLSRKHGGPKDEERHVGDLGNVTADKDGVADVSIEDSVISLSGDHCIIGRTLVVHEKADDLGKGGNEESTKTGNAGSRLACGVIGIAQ

Turning to cyclo-TWSVW (cyclic) [SOD1C5-4], in the assay with SOD1(A4V) [1], the “time-dependent conformational transition indicative of SOD1(A4V) aggregation” value is listed as “significantly delayed”. The “interaction with SOD1(A4V) by CD spectroscopy” value with SOD1(A4V) [1] (1:1 and 5:1 peptide:SOD1(A4V)) is given as “interacts with SOD1(A4V)”. Further, in the assay with SOD1(A4V) [2], the “size of oligomeric/aggregated SOD1(A4V) species (DLS)” value was “markedly smaller sizes”.
